Reference: patent publication US5840867

B1: 15-mer GGTTGGTGTGGTU'GG (ssDNA)
DNA: GGTTGGTGTGGTTGG
modifications: 5-(1-pentynyl)uracil at position 13 [13 = 5-(1-pentynyl)uracil (dU analog written as T)]

Biological target: thrombin (UniProt P00734;P00734 P00734:328-363,P00734:364-622)
Assay: inhibition; fibrinogen clotting assay

Binder | Ki
GGTTGGTGTGGTTGGGT (ssDNA, P(O)NH(CH2CH2OCH3) (MEA) linkages between 15-16 and 16-17) [17-mer with 3' MEA linkages GGTTGGTGTGGTTGG#G#T] | 35 nM
GGTTGGTGTGGTTGG (ssDNA, PS linkages between 13-14 and 14-15) [15-mer with 3' thioates GGTTGGTGTGGTT*G*G] | 40 nM
GGTTGGTGTGGTTGG (ssDNA, PS at all linkages) [15-mer all thioate] | 280 nM
GGTTGGTGTGGTTGG (ssDNA, dU at positions 7 and 9 [n positions 7,9 = modified dU]) [15-mer GGTTGG(dU)G(dU)GGTTGG] | 15 nM
GGTTGGTGTGGTTGG (ssDNA, dU at positions 3 and 12 [n positions 3,12 = modified dU]) [15-mer GG(dU)TGGTGTGG(dU)TGG] | 80 nM
B1 | 20 nM
